Experimental data published in patent publication US20200264182A1, “METHOD FOR DETECTING PROSTATE CANCER” (J-OIL MILLS, INC., priority 2017, published 2020).

Tests used:
[1] = target: serum fucosylated PSA (prostate specific antigen) (human) (UniProt P07288); test: sandwich ELISA, anti-PSA antibody capture, biotin-lectin detection, pH 9.6; serum of Prostate cancer 3 (GS 6)
[2] = target: serum fucosylated PSA (prostate specific antigen) (human) (UniProt P07288); test: sandwich ELISA, anti-PSA antibody capture, biotin-lectin detection, pH 9.6; serum of Healthy 6
[3] = target: serum fucosylated PSA (prostate specific antigen) (human) (UniProt P07288); test: sandwich ELISA, anti-PSA antibody capture, biotin-lectin detection, pH 9.6; sera of subgroup GS7, n=2
[4] = target: serum fucosylated PSA (prostate specific antigen) (human) (UniProt P07288); test: sandwich ELISA, anti-PSA antibody capture, biotin-lectin detection, pH 9.6; subject samples B, subgroup GS8-9, n=6
[5] = target: serum fucosylated PSA (prostate specific antigen) (human) (UniProt P07288); test: sandwich ELISA, anti-PSA antibody capture, biotin-lectin detection, pH 9.6; subject samples B, subgroup Negative, n=9
[6] = target: serum fucosylated PSA (prostate specific antigen) (human) (UniProt P07288); test: sandwich ELISA, anti-PSA antibody capture, biotin-lectin detection, lectin reaction pH 9.6; serum of Prostate cancer 4 (GS6)
[7] = target: serum fucosylated PSA (prostate specific antigen) (human) (UniProt P07288); test: sandwich ELISA, anti-PSA antibody capture, biotin-lectin detection, pH 9.6; serum of Prostate cancer 2 (GS 5)
[8] = target: serum fucosylated PSA (prostate specific antigen) (human) (UniProt P07288); test: sandwich ELISA, anti-PSA antibody capture, biotin-lectin detection, pH 9.6; sera of the healthy person group (n=7)
[9] = target: serum fucosylated PSA (prostate specific antigen) (human) (UniProt P07288); test: sandwich ELISA, anti-PSA antibody capture, biotin-lectin detection, pH 9.6; subject samples B, subgroup GS6, n=9
[10] = target: serum fucosylated PSA (prostate specific antigen) (human) (UniProt P07288); test: sandwich ELISA, anti-PSA antibody capture, biotin-lectin detection, pH 9.6; serum of Prostate cancer 7 (GS 8)
[11] = target: serum fucosylated PSA (prostate specific antigen) (human) (UniProt P07288); test: sandwich ELISA, anti-PSA antibody capture, biotin-lectin detection, lectin reaction pH 7.4; serum of Prostate cancer 4 (GS6)
[12] = target: serum fucosylated PSA (prostate specific antigen) (human) (UniProt P07288); test: sandwich ELISA, anti-PSA antibody capture, biotin-lectin detection, pH 9.6; serum of Prostate cancer 1 (GS 4)
[13] = target: serum fucosylated PSA (prostate specific antigen) (human) (UniProt P07288); test: sandwich ELISA, anti-PSA antibody capture, biotin-lectin detection, pH 9.6; serum of Prostate cancer 9 (GS 8)
[14] = target: serum fucosylated PSA (prostate specific antigen) (human) (UniProt P07288); test: sandwich ELISA, anti-PSA antibody capture, biotin-lectin detection, pH 9.6; serum of Prostate cancer 6 (GS 7)
[15] = target: serum fucosylated PSA (prostate specific antigen) (human) (UniProt P07288); test: sandwich ELISA, anti-PSA antibody capture, biotin-lectin detection, pH 9.6; serum of Healthy 7
[16] = target: serum fucosylated PSA (prostate specific antigen) (human) (UniProt P07288); test: sandwich ELISA, anti-PSA antibody capture, biotin-lectin detection, lectin reaction pH 9.6; serum of Healthy 1
[17] = target: serum fucosylated PSA (prostate specific antigen) (human) (UniProt P07288); test: sandwich ELISA, anti-PSA antibody capture, biotin-lectin detection, pH 9.6; subject samples B, subgroup GS7, n=11
[18] = target: serum fucosylated PSA (prostate specific antigen) (human) (UniProt P07288); test: sandwich ELISA, anti-PSA antibody capture, biotin-lectin detection, pH 9.6; serum of Prostate cancer 8 (GS 8)
[19] = target: serum fucosylated PSA (prostate specific antigen) (human) (UniProt P07288); test: sandwich ELISA, anti-PSA antibody capture, biotin-lectin detection, pH 9.6; serum of Healthy 2
[20] = target: serum fucosylated PSA (prostate specific antigen) (human) (UniProt P07288); test: sandwich ELISA, anti-PSA antibody capture, biotin-lectin detection, pH 9.6; serum of Prostate cancer 4 (GS 6)
[21] = target: serum fucosylated PSA (prostate specific antigen) (human) (UniProt P07288); test: sandwich ELISA, anti-PSA antibody capture, biotin-lectin detection, lectin reaction pH 7.4; serum of Healthy 1
[22] = target: serum fucosylated PSA (prostate specific antigen) (human) (UniProt P07288); test: sandwich ELISA, anti-PSA antibody capture, biotin-lectin detection, pH 9.6; sera of subgroup Negative (GS5 or less), n=2
[23] = target: serum fucosylated PSA (prostate specific antigen) (human) (UniProt P07288); test: sandwich ELISA, anti-PSA antibody capture, biotin-lectin detection, pH 9.6; sera of the prostate cancer patient group (n=9)
[24] = target: serum fucosylated PSA (prostate specific antigen) (human) (UniProt P07288); test: sandwich ELISA, anti-PSA antibody capture, biotin-lectin detection, pH 9.6; serum of Prostate cancer 5 (GS 7)
[25] = target: serum fucosylated PSA (prostate specific antigen) (human) (UniProt P07288); test: sandwich ELISA, anti-PSA antibody capture, biotin-lectin detection, pH 9.6; serum of Healthy 5
[26] = target: serum fucosylated PSA (prostate specific antigen) (human) (UniProt P07288); test: sandwich ELISA, anti-PSA antibody capture, biotin-lectin detection, pH 9.6; serum of Healthy 4
[27] = target: serum fucosylated PSA (prostate specific antigen) (human) (UniProt P07288); test: sandwich ELISA, anti-PSA antibody capture, biotin-lectin detection, pH 9.6; serum of Healthy 3
[28] = target: serum fucosylated PSA (prostate specific antigen) (human) (UniProt P07288); test: sandwich ELISA, anti-PSA antibody capture, biotin-lectin detection, pH 9.6; sera of subgroup GS6, n=2
[29] = target: serum fucosylated PSA (prostate specific antigen) (human) (UniProt P07288); test: sandwich ELISA, anti-PSA antibody capture, biotin-lectin detection, pH 9.6; serum of Healthy 1
[30] = target: serum fucosylated PSA (prostate specific antigen) (human) (UniProt P07288); test: sandwich ELISA, anti-PSA antibody capture, biotin-lectin detection, pH 9.6; sera of subgroup GS8 or more, n=3

**Q.** With “Pholiota squarrosa lectin (PhoSL), biotin-labeled” as the substance, how does the PhoSL reaction value [1] read?
**A.** 104 U/mL

**Q.** What about the PhoSL reaction value [2] of the same substance?
**A.** 39.7 U/mL

**Q.** What about the PhoSL reaction value (mean value) [3] of the same substance?
**A.** 142 U/mL

**Q.** What about the PhoSL reaction value (median value) [3] of the same substance?
**A.** 142 U/mL

**Q.** What about the PhoSL reaction value (mean value) [4] of the same substance?
**A.** 233 U/mL

**Q.** What about the PhoSL reaction value (median value) [4] of the same substance?
**A.** 240 U/mL

**Q.** What about the PhoSL reaction value (mean value) [5] of the same substance?
**A.** 204 U/mL

**Q.** What about the PhoSL reaction value (median value) [5] of the same substance?
**A.** 178 U/mL

**Q.** What about the PhoSL reaction value [6] of the same substance?
**A.** 179 U/mL

**Q.** What about the PhoSL reaction value [7] of the same substance?
**A.** 117 U/mL

**Q.** What about the PhoSL reaction value (average value) [8] of the same substance?
**A.** 57.3 U/mL

**Q.** And the PhoSL reaction value (median value) [8]?
**A.** 55.9 U/mL

**Q.** What about the PhoSL reaction value (mean value) [9] of the same substance?
**A.** 182 U/mL

**Q.** What about the PhoSL reaction value (median value) [9] of the same substance?
**A.** 189 U/mL

**Q.** What about the PhoSL reaction value [10] of the same substance?
**A.** 126 U/mL

**Q.** And the PhoSL reaction value [11]?
**A.** 108 U/mL

**Q.** And the PhoSL reaction value [12]?
**A.** 116 U/mL

**Q.** And the PhoSL reaction value [13]?
**A.** 251 U/mL

**Q.** What about the PhoSL reaction value [14] of the same substance?
**A.** 168 U/mL

**Q.** What about the PhoSL reaction value [15] of the same substance?
**A.** 59 U/mL

**Q.** What about the PhoSL reaction value [16] of the same substance?
**A.** 51.9 U/mL

**Q.** And the PhoSL reaction value (mean value) [17]?
**A.** 120 U/mL

**Q.** What about the PhoSL reaction value (median value) [17] of the same substance?
**A.** 211 U/mL

**Q.** What about the PhoSL reaction value [18] of the same substance?
**A.** 130 U/mL

**Q.** And the PhoSL reaction value [19]?
**A.** 55.9 U/mL

**Q.** And the PhoSL reaction value [20]?
**A.** 179 U/mL

**Q.** What about the PhoSL reaction value [21] of the same substance?
**A.** 35.8 U/mL

**Q.** And the PhoSL reaction value (mean value) [22]?
**A.** 116 U/mL

**Q.** And the PhoSL reaction value (median value) [22]?
**A.** 116 U/mL

**Q.** What about the PhoSL reaction value (average value) [23] of the same substance?
**A.** 145 U/mL

**Q.** And the PhoSL reaction value (median value) [23]?
**A.** 126 U/mL

**Q.** What about the PhoSL reaction value [24] of the same substance?
**A.** 116 U/mL

**Q.** And the PhoSL reaction value [25]?
**A.** 55.8 U/mL

**Q.** And the PhoSL reaction value [26]?
**A.** 74.9 U/mL

**Q.** What about the PhoSL reaction value [27] of the same substance?
**A.** 63.9 U/mL

**Q.** And the PhoSL reaction value (mean value) [28]?
**A.** 142 U/mL

**Q.** And the PhoSL reaction value (median value) [28]?
**A.** 142 U/mL

**Q.** What about the PhoSL reaction value [29] of the same substance?
**A.** 51.9 U/mL

**Q.** And the PhoSL reaction value (mean value) [30]?
**A.** 130 U/mL

**Q.** What about the PhoSL reaction value (median value) [30] of the same substance?
**A.** 169 U/mL
